From CN110218251A (FUZHOU MAIXIN BIOTECHNOLOGY DEV CO LTD, dated 2019)

Biological target: T1, MSH2蛋白 (endogenous, in HCT8 and Biu-87 cell lysates and in human tissue sections) (human, UniProt P43246 2-934)
T1 construct: Endogenous protein; also called MutS homolog 2
Assay: IHC on tonsil tissue

T1 sequence (P43246 2-934 limits assumed): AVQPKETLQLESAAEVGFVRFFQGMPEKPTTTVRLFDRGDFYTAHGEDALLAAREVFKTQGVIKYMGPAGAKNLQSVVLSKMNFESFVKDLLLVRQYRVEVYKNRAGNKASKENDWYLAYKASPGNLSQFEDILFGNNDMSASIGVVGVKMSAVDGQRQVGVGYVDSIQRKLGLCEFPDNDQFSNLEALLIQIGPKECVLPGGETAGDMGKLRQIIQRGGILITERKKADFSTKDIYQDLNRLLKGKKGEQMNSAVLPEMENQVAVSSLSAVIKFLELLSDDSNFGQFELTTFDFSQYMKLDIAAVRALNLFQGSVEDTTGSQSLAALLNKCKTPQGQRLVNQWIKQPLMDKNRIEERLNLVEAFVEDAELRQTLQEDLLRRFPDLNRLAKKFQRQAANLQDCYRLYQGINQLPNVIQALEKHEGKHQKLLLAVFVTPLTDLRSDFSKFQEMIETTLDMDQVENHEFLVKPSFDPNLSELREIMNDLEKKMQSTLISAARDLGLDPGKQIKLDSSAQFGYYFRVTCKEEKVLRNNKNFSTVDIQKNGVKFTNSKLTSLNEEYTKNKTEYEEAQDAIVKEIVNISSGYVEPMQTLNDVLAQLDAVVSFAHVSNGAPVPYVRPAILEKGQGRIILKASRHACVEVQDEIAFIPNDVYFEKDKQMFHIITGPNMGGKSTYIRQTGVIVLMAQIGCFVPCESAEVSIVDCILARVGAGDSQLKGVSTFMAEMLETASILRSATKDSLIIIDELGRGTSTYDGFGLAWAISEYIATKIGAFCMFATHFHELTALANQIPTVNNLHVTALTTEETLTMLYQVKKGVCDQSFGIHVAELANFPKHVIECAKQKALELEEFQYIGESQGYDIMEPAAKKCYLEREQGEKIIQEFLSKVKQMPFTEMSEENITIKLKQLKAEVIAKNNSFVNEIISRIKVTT

binding result: binds
B1: 抗MSH2蛋白单克隆抗体(1B11-14-16) (antibody, V domains shown)
VH: QVQLQQSGAELMKPGASVRISCKATGYTFTRYWIEWVKERPGHGLEWIGEILPGSGGTNYNEKFKGKATFTADTSSNTVHMQLNSLTSEDSAVYYCVKREGPYWGRGTLVTVSA
VL: DVLMTQTPLSLPVSLGDQASISCRSSQSIVYRTGSTFLEWYLQKPGQSPKLLIYKVSNRFSGVPDRFSGSGSGTDFTLKISRVEAEDLGVYYCFQGSHLPYTFGGGTKLEIK
notes: also called MSH2(1B11-14-16)单克隆抗体; 1B11-14-16的MSH2
